Key:
[1] = target: T1, Ax1 protein, extracellular domain (human, UniProt P30530 26-451); test: ELISA, mutant diluted 1:9
T1 construct: extracellular domain; also called Axl; Ark
T1 sequence (looked up): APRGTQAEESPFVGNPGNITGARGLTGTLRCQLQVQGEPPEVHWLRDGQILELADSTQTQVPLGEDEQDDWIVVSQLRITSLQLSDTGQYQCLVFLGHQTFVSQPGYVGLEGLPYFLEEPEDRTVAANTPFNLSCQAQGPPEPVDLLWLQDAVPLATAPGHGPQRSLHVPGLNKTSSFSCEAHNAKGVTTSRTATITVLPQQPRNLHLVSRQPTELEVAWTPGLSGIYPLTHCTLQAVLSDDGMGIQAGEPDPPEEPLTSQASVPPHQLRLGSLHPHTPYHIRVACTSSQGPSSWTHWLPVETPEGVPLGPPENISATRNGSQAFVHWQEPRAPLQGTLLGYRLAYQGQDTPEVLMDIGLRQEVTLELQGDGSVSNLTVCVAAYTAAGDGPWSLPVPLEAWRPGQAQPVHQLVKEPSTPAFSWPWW
Description: (§1) The DNA encoding the wild-type antibody was evolved to generate a mutant antibody library using Comprehensive Positional Evolution (CPE), which each position in the template antibody is randomized one at a time. Each mutant antibody in the library has only one single point mutation. The mutant antibodies in the library were generated by simultaneously screening for selective binding affinity to Ax1 at pH 6.0 over pH 7.4 by ELISA. Two mutant antibody dilutions were used: 1:3 and 1:9 dilutions.

[2] = target: T1, Ax1 protein, extracellular domain; test: ELISA, mutant diluted 1:3
Description: as §1

| Affinity ELISA CPE mutant ratio (1:9, pH 6.0/7.4) [1] | Affinity ELISA CPE mutant ratio (1:3, pH 6.0/7.4) [2] | Binder |
| --- | --- | --- |
| 0.932 | 7.99 | HC-W110H (antibody, V domains shown) VH: EVQLVQSGAEVKKPGATVKISCKVSGYSFTGHTMNWIRQPPGKGLEWIGLIKPSNGGTSYNQKFKGRVTISADKSISTAYLQWSSLKASDTAMYYCAHGHYESYFAMDYHGQGTLVTVSS VL: DIQMTQSPSSLSASVGDRVTITCKASQDVSSAVAWYQQKPGQAPRLLIYWASTRHTGVPSRFSGSGSGTEFTLTISSLQPDDFATYYCQEHFSTPLTFGQGTKVEIK |
| 1.37 | 7.47 | HC-W110T (antibody, V domains shown) VH: EVQLVQSGAEVKKPGATVKISCKVSGYSFTGHTMNWIRQPPGKGLEWIGLIKPSNGGTSYNQKFKGRVTISADKSISTAYLQWSSLKASDTAMYYCAHGHYESYFAMDYTGQGTLVTVSS VL: DIQMTQSPSSLSASVGDRVTITCKASQDVSSAVAWYQQKPGQAPRLLIYWASTRHTGVPSRFSGSGSGTEFTLTISSLQPDDFATYYCQEHFSTPLTFGQGTKVEIK |
| 0.8 | 4.3 | HC-W110N (antibody, V domains shown) VH: EVQLVQSGAEVKKPGATVKISCKVSGYSFTGHTMNWIRQPPGKGLEWIGLIKPSNGGTSYNQKFKGRVTISADKSISTAYLQWSSLKASDTAMYYCAHGHYESYFAMDYNGQGTLVTVSS VL: DIQMTQSPSSLSASVGDRVTITCKASQDVSSAVAWYQQKPGQAPRLLIYWASTRHTGVPSRFSGSGSGTEFTLTISSLQPDDFATYYCQEHFSTPLTFGQGTKVEIK |
| 1.2 | 7.31 | HC-W110A (antibody, V domains shown) VH: EVQLVQSGAEVKKPGATVKISCKVSGYSFTGHTMNWIRQPPGKGLEWIGLIKPSNGGTSYNQKFKGRVTISADKSISTAYLQWSSLKASDTAMYYCAHGHYESYFAMDYAGQGTLVTVSS VL: DIQMTQSPSSLSASVGDRVTITCKASQDVSSAVAWYQQKPGQAPRLLIYWASTRHTGVPSRFSGSGSGTEFTLTISSLQPDDFATYYCQEHFSTPLTFGQGTKVEIK |
| 0.924 | 8.22 | HC-W110L (antibody, V domains shown) VH: EVQLVQSGAEVKKPGATVKISCKVSGYSFTGHTMNWIRQPPGKGLEWIGLIKPSNGGTSYNQKFKGRVTISADKSISTAYLQWSSLKASDTAMYYCAHGHYESYFAMDYLGQGTLVTVSS VL: DIQMTQSPSSLSASVGDRVTITCKASQDVSSAVAWYQQKPGQAPRLLIYWASTRHTGVPSRFSGSGSGTEFTLTISSLQPDDFATYYCQEHFSTPLTFGQGTKVEIK |
| 1.06 | 5.99 | HC-W110R (antibody, V domains shown) VH: EVQLVQSGAEVKKPGATVKISCKVSGYSFTGHTMNWIRQPPGKGLEWIGLIKPSNGGTSYNQKFKGRVTISADKSISTAYLQWSSLKASDTAMYYCAHGHYESYFAMDYRGQGTLVTVSS VL: DIQMTQSPSSLSASVGDRVTITCKASQDVSSAVAWYQQKPGQAPRLLIYWASTRHTGVPSRFSGSGSGTEFTLTISSLQPDDFATYYCQEHFSTPLTFGQGTKVEIK |
| 2.15 | 6.49 | HC-W110P (antibody, V domains shown) VH: EVQLVQSGAEVKKPGATVKISCKVSGYSFTGHTMNWIRQPPGKGLEWIGLIKPSNGGTSYNQKFKGRVTISADKSISTAYLQWSSLKASDTAMYYCAHGHYESYFAMDYPGQGTLVTVSS VL: DIQMTQSPSSLSASVGDRVTITCKASQDVSSAVAWYQQKPGQAPRLLIYWASTRHTGVPSRFSGSGSGTEFTLTISSLQPDDFATYYCQEHFSTPLTFGQGTKVEIK |

— patent US20240199746A1 (published 2024)
